Square brackets hold non-standard residues; d marks the D form.
Target: bovine lung-derived ANP receptor (bovine)
Test: competition radioligand binding: displacement of 125I-rat ANP from bovine lung membrane fraction, filter assay

bovine lung-derived ANP receptor (bovine), sequence (P10730 42-537): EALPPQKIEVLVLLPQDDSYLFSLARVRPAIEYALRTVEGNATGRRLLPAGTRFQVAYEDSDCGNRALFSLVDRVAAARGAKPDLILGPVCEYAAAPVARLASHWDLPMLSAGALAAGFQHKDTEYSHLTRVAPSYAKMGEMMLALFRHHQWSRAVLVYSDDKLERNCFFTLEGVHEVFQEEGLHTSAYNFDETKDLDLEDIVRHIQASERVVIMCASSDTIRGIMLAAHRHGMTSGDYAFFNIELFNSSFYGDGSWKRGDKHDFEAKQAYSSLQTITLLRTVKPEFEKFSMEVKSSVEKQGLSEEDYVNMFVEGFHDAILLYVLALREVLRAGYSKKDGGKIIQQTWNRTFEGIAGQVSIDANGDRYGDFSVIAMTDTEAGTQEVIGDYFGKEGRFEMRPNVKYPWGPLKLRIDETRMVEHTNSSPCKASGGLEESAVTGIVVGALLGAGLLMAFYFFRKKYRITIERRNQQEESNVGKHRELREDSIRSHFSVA

B1: compound (i) (H-Phe-Gly-Gly-D-Arg-Ile-Asp-Arg-Ile-NH2) (peptide)
peptide: H-FGG[dR]IDRI-NH2
SMILES: CC[C@H](C)[C@H](NC(=O)[C@H](CCCNC(=N)N)NC(=O)[C@H](CC(=O)O)NC(=O)[C@@H](NC(=O)[C@@H](CCCNC(=N)N)NC(=O)CNC(=O)CNC(=O)[C@@H](N)Cc1ccccc1)[C@@H](C)CC)C(N)=O
- IC50: 0.21 µM

B2: compound (j) (H-Phe-Gly-Gly-D-Arg-Ile-Asp-D-Arg-Ile-NH2) (peptide)
peptide: H-FGG[dR]ID[dR]I-NH2
SMILES: CC[C@H](C)[C@H](NC(=O)[C@@H](CCCNC(=N)N)NC(=O)[C@H](CC(=O)O)NC(=O)[C@@H](NC(=O)[C@@H](CCCNC(=N)N)NC(=O)CNC(=O)CNC(=O)[C@@H](N)Cc1ccccc1)[C@@H](C)CC)C(N)=O
- IC50: 5.4 µM

Reference: patent publication EP0672680A1
